From paper PMC8481289, “Structural basis for UFM1 transfer from UBA5 to UFC1” (Nature Communications, 2021)
Residue numbers refer to the chain shown, from its start.

B1: UBA5(347–404) (domain or fragment, human, UniProt Q9GZZ9 347-404, looked up)
chain: SEVSEEELKNFSGPVPDLPEGITVAYTIPKKQEDSVTELTVEDSGESLEDLMAKMKNM
notes: In the crystal structure 7NVK the same stretch stood fused to the N-terminus of UFC1
B2: UBA5 (389-404) (domain or fragment, human, UniProt Q9GZZ9 389-404, looked up)
chain: DSGESLEDLMAKMKNM
notes: UBA5, human, residues 389-404 (holds the UBS); Never stood alone: it was fused to the C-terminus of UFC1 for the crystal structure; also called UBS; source: E. coli T7 express, purified, as part of the fusion UFC1-UBA5(389-404)
B3: UBA5(Δ349-389) (enzyme, human)
chain: MAESVERLQQRVQELERELAQERSLQVPRSGDGGGGRVRIEKMSSEVVDSNPYSRLMALKRMGIVSDYEKIRTFAVAIVGVGGVGSVTAEMLTRCGIGKLLLFDYDKVELANMNRLFFQPHQAGLSKVQAAEHTLRNINPDVLFEVHNYNITTVENFQHFMDRISNGGLEEGKPVDLVLSCVDNFEARMTINTACNELGQTWMESGVSENAVSGHIQLIIPGESACFACAPPLVVAANIDEKTLKREGVCAASLPTTMGVVAGILVQNVLKFLLNFGTVSFYLGYNAMQDFFPTMSMKPNPQCDDRNCRKQQEEYKKKVAALPKQEVIQEEEEIIHEDNEWGIELVSEGSGSGESLEDLMAKMKNM
notes: UBA5, human, up to residue 348; UBA5, human, from residue 390 to the C-terminus (holds the UBS); Linker between UIS and UBS removed, UBS kept
B4: UFC1 (WT) (enzyme, human)
chain: MADEATRRVVSEIPVLKTNAGPRDRELWVQRLKEEYQSLIRYVENNKNADNDWFRLESNKEGTRWFGKCWYIHDLLKYEFDIEFDIPITYPTTAPEIAVPELDGKTAKMYRGGKICLTDHFKPLWARNVPKFGLAHLMALGLGPWLAVEIPDLIQKGVIQHKEKCNQ
notes: UFC1, the E2 of UFM1; active site C116; 15N-labelled (M9 medium with 15NH4Cl) for the NMR titrations; In the two crystal structures UFC1 stood as part of a fusion chain; also called E2
B5: UFC1-NC (enzyme, human)
chain: B4 chain with C69S, C165S
modifications: activated with the crosslinker 2,2' dithiodipyridyldisulfide (DPDS); only the active site C116 is left
notes: UFC1 with C69 and C165 mutated to serine, leaving only the active site C116

What was measured:
Details in all cases: both partners purified
UFC1 (WT) [1] = target: B4; assay: crystal structure; UBA5(347-404) fused to the N-terminus of UFC1; 2.65 Å; the UBS binds the UFC1 of a molecule of another asymmetric unit; 2% tacsimate pH 7.0, 20% PEG 3350, 0.1 M HEPES pH 7.5, 6 mM zinc sulfate, 20 °C
UFC1 (WT) [2] = target: B4; assay: crystal structure; UBA5(389-404) fused to the C-terminus of UFC1; 2.4 Å; the UBS binds the UFC1 of a fusion molecule of another asymmetric unit; 35 mM citric acid, 65 mM bis-tris propane, 19% PEG3350, 100 mM LiCl, 20 °C
UFC1 (WT) [3] = target: B4; assay: ITC; UFC1 titrated into the UBA5 construct (heat per mole of UFC1); MicroCal PEAQ ITC, 25 °C; 20 mM Tris pH 7.5, 50 mM NaCl, 2 mM DTT; 19 injections of 2 μl; fitted to the two sets of sites model
UBA5 Y372A = target: T1, UBA5 Y372A (human, UniProt Q9GZZ9 1-404, Y372A); assay: as above
T1 construct: UBA5, human, point mutant in the linker between UIS and UBS

UBA5 WT = target: T2, UBA5 WT (human, UniProt Q9GZZ9 1-404); assay: cross-linking; disulfide trapping: DPDS-activated UFC1-NC (4 μM) mixed with 2 μM UBA5 (WT or mutants) in PBS, 25 °C, 20 min; non-reducing SDS-PAGE, Coomassie
T2 construct: UBA5, human; active site C250; also called E1

[4] = target: T3, UBA5 double mutant C250A and A371C (human, UniProt Q9GZZ9 1-404, C250A | A371C); assay: as above
T3 construct: UBA5, human, active site Cys removed and a Cys placed in the linker

B1: binds (UFC1 (WT) [1]).

B2: binds (UFC1 (WT) [2]).

In the case of B3, the Kd (UFC1 (WT) [3]) is reported as 5.5 µM.

B4: binds (UBA5 Y372A).

B5: binds (UBA5 WT); binds [4].
